In paper PMC9436372:

Biological target: T1, ATF3 (recombinant human) (Homo sapiens, UniProt P18847 1-181)
T1 sequence: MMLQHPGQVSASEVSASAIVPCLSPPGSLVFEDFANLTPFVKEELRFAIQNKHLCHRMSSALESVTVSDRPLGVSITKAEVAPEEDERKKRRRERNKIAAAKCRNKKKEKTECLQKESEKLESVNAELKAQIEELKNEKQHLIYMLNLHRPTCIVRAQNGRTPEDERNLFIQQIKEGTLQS
Assay: EMSA

B1: HyATF3-2 probe (dsDNA)
DNA 1: TTATGTTTACTGACGTTTCCCTGCCTTCTA
DNA 2: TAGAAGGCAGGGAAACGTCAGTAAACATAA
Question: Does B1 bind?
Answer: binds

B2: HyATF3-1 probe (dsDNA)
DNA 1: GAAAAAAACGTCAGAAAACAAGTGACGTATTATA
DNA 2: TATAATACGTCACTTGTTTTCTGACGTTTTTTTC
Question: Does B2 bind?
Answer: binds
